According to patent US20100081621, “Crystal structure of the catalytic domain of the viral restriction factor APOBEC3G” (published 2010):

Tests used:
[1] = target: APOBEC3G full-length (E. coli) (Homo sapiens, UniProt Q9HC16 Q9HC16:1-384); assay: processive deamination with bias to the 5' CCC; conditions: tags: GST, pGEX-6P1, E. coli; label: internal fluorescein-dT
Source text: (§1) FIG. 1B is Apo3G processivity and 3′_{—}5′ deamination bias was characterized on an 85-nt internally F-labeled ssDNA with two CCC motifs 30-nt apart. Single deaminations of the 5′C and 3′C that are spaced by 30-nt on the ssDNA substrate are detected as the appearance of labeled 67- and 48-nt fragments, respectively; double deamination of both Cs on the same molecule results in 30-nt labeled fragment (5′C and 3′C). Substrate usage (%) is less than 15% to maintain single-hit kinetics. The ‘Processivity factor’ is defined as the ratio of the observed fraction of double deaminations (occurring at both 5′C and 3′C on the same molecule) to the predicted fraction of independent double deaminations (Chelico et al., 2006). […] The deamination bias is measured by the ratio of 5′C/3′C deaminations. Deamination patterns are shown using full length Apo3G (lane 2) and Apo3G-CD2 (lanes 3, 4). As a control, no Apo3G or Apo3G-CD2 enzyme was added in lane 1.
(§2) Apo3G (0.024-μM) was allowed to react with 500 nM FdT incorporated ssDNA for […] and subsequently treated with UDG and resolved on 16% UREA PAGE for analysis as described previously¹⁰. Specific activity, measured as fmoles substrate deaminated per pg enzyme per minute, was calculated from the percent deamination of an ssDNA substrate over a range of enzyme concentrations. […]

APOBEC3G-CD2 = APOBEC3G-CD2 (Homo sapiens, UniProt Q9HC16 Q9HC16:197-380); assay: about 2-fold decrease in processivity and polarity; conditions: tags: GST removed by PreScission protease; label: internal fluorescein-dT
Source text: as §1, §2

APOBEC3G D316R/D317R = APOBEC3G D316R/D317R (Homo sapiens, UniProt Q9HC16 Q9HC16:1-384, D316R,D317R); assay: FP; higher binding than wt; 5 mM MgCl2, 37 C; conditions: tags: Sf9, pAcG2T; label: internal fluorescein-dT
Protocol: Apo3G-DNA binding were monitored by changes in steady state fluorescence depolarization (rotational anisotropy). Reaction mixtures (70 μl), containing an F-labeled DNA ([…]) in buffer (50 mM HEPES, pH 7.3, 1 mM DTT and 5 mM MgCl₂) and varying concentration of 0 to 500 nM Apo3G, were incubated at 37° C. The sequence of the ssDNA is: tta gat gag tgt aa(FdT) gtg ata tat gtg tat. Rotational anisotropy was measured as described previously (Chelico et al., 2006). The fraction of DNA bound to protein was determined as described previously (Bertram et al., 2004).

Sequence of APOBEC3G D316R/D317R (Q9HC16 whole entry D316R/D317R, one chain of several): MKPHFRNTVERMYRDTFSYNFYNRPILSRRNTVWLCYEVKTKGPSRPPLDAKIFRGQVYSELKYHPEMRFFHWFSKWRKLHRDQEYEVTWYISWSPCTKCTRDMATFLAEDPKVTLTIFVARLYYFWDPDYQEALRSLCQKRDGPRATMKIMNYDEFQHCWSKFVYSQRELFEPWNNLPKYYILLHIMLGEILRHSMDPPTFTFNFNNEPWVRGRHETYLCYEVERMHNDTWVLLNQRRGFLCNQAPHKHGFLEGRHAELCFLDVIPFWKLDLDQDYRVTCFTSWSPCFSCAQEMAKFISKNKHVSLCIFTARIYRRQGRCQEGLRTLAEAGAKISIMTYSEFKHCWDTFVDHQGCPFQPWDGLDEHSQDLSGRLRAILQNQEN
Sequence of APOBEC3G-CD2 (Q9HC16 197-380, one chain of several): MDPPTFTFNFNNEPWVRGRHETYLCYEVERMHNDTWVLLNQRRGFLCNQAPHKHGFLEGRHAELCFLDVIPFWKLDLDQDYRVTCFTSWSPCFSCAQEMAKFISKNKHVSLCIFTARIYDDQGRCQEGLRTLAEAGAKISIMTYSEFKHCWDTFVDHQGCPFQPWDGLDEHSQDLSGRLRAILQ
Sequence of APOBEC3G full-length (E. coli) (Q9HC16 whole entry, the tested form may be a part, one chain of several): as the sequence (Q9HC16 whole entry D316R/D317R, one chain of several) above, with R316D, R317D counted along it

B1: 85-nt processivity ssDNA (ssDNA)
DNA: AAAGAGAAAGTGATACCCAAAGAGTAAAGTTAGATAGAGAGTGATACCCAAAGAGTAAAGTTAGTAAGATGTGTAAGTATGTTAA
modifications: [31 (FdT = fluorescein-dT, written as T)]
**Q.** Which results are given for B1?
**A.** binding result [1]: binds; binding result (APOBEC3G-CD2): binds

**Q.** With TTAGATGAGTGTAATGTGATATATGTGTAT (ssDNA, [15 (fluorescein-dT)]) [anisotropy ssDNA] as the binder, how does the binding signal (APOBEC3G D316R/D317R) read?
**A.** Its binding signal is 2 fold of wt.
